From patent US20250197505A1 (DREN BIO, published 2025) come the findings set out here.

For assay [1], the target named is T1, human CD94 expressed on cells (human primary NK cells in PBMCs; HEK cells expressing human CD94) (human, UniProt Q13241 1-179).
T1 construct: whole, on cells; also called KLRD1; Natural killer cells antigen CD94
T1 sequence (looked up): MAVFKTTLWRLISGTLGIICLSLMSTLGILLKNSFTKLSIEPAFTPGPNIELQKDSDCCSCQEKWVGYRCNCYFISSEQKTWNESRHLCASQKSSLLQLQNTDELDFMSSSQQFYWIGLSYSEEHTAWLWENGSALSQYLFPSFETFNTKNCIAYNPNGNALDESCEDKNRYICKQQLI
The experiment in a line: flow cytometry, HEK cells expressing human CD94, 2nd run. The method, then:
(§1) Binding of the variant antibodies to HEK cells expressing human CD94 was also tested. Variants and ATX-130 antibodies were generated in human IgG1 form, and binding to HEK cells expressing human CD94 was assessed using flow cytometry. Experiments were run in duplicate, and the average EC50 of the 2 runs was calculated.

The target of assay [2] is T1, human CD94 expressed on cells (human …). The assay can be described thus: flow cytometry, HEK cells expressing human CD94, average of 2 runs. The method, then:
as §1

Assay [3] shares this target. The assay can be described thus: flow cytometry, HEK cells expressing human CD94, 1st run. The method, then:
as §1
In general terms: In flow cytometry, cells or beads pass a laser one at a time.

Assay [4] has the same target. The experiment in a line: cell-based or functional assay.

B1: Ab.25 hG1 (antibody, V domains shown)
VH: EVQLLESGGGLVKPGGSLRLSCAASGFTFSSYSMNWVRQAPGKGLEWVSSISTSSNYIYYADSVKGRFTISRDNAKNSLYLQMNSLRAEDTAVYYCARDLGRYYYYMDVWGKGTTVTVSS
VL: DIVMTQSPSSLSASVGDRVTITCRASQSISSWLAWYQQKPGKAPKSLIYAASSLQSGVPSKFSGSGSGTDFTLTISSLQPEDVATYYCQKYNSAPFTFGPGTKVDIK
notes: Human IgG1 form; VH cell printed as 'SEO ID NO: 32'; also called Ab.25 human IgG1
What is called EC50 is the concentration needed to bring the measured effect to its halfway point. In the case of B1, the half-maximal effective concentration (EC50) in assay [1] was 0.14 nM; in assay [2] it was 0.15 nM; in assay [3], 0.15 nM.

B2: Ab.28 hG1 (antibody, V domains shown)
VH: EVQLLESGGGLVKPGGSLRLSCAASGFTFSSYSMNWVRQAPGKGLEWVSSISTSSNFIYYADSVKGRFTISRDNAKNSLYLQMNSLRAEDTAVYYCARDLGRYYYYMDVWGKGTTVTVSS
VL: DIVMTQSPSSLSASVGDRVTITCRASQSISSWLAWYQQKPEKAPKSLIYAASSLQSGVPSKFSGSGSGTDFTLTISSLQPEDVATYYCQKYNSAPFTFGPGTKVDIK
notes: Human IgG1 form; also called Ab.28 human IgG1
Turning to B2, the EC50 in assay [1], in assay [2] and in assay [3] was 0.11 nM in each case.

B3: Ab.33 hG1 (antibody, V domains shown)
VH: EVQLLESGGGLVKPGGSLRLSCAASGFTFSSYSMNWVRQAPGKGLEWVSSISTSSNFIYYADSVKGRFTISRDNAKNSLYLQMNSLRAEDTAVYYCARDLGRYYYYMDVWGKGTTVTVSS
VL: DIVMTQSPSSLSASVGDRVTITCRASQSISSWLAWYQQKPGKAPKSLIYAASSLQSGVPSKFSGSGSGTDFTLTISSLQPEDVATYYCQQYNSAPFTFGPGTKVDIK
notes: Human IgG1 form; also called Ab.33 human IgG1
Take B3: the EC50 in assay [1] came to 0.13 nM; in assay [2] it was 0.19 nM; in assay [3], 0.25 nM.

B4: Ab.32 hG1 (antibody, V domains shown)
VH: EVQLLESGGGLVKPGGSLRLSCAASGFTFSSYSMNWVRQAPGKGLEWVSSISTSSNFIYYADSVKGRFTISRDNAKNSLYLQMNSLRAEDTAVYYCARDLGRYYYYMDVWGKGTTVTVSS
VL: DIVMTQSPSSLSASVGDRVTITCRASQSISSWLAWYQQKPGKAPKSLIYAASSLQSGVPSKFSGSGSGTDFTLTISSLQPEDFATYYCQKYNSAPFTFGPGTKVDIK
notes: Human IgG1 form; also called Ab.32 human IgG1
Take B4: the EC50 was determined as 0.11 nM in assay [1], 0.12 nM in assay [2] and 0.12 nM in assay [3].

B5: Ab.29 hG1 (antibody, V domains shown)
VH: EVQLLESGGGLVKPGGSLRLSCAASGFTFSSYSMNWVRQAPGKGLEWVSSISTSSNFIYYADSVKGRFTISRDNAKNSLYLQMNSLRAEDTAVYYCARDLGRYYYYMDVWGKGTTVTVSS
VL: DIVMTQSPSSLSASVGDRVTITCRASQSISSWLAWYQQKPGKVPKSLIYAASSLQSGVPSKFSGSGSGTDFTLTISSLQPEDVATYYCQKYNSAPFTFGPGTKVDIK
notes: Human IgG1 form; also called Ab.29 human IgG1
With B5, the half-maximal effective concentration (EC50) in assay [1] was determined as 0.13 nM; in assay [2], 0.16 nM; in assay [3], 0.18 nM.

B6: Ab.26 hG1 (antibody, V domains shown)
VH: EVQLLESGGGLVKPGGSLRLSCAASGFTFSSYSMNWVRQAPGKGLEWVSSISTSSNFIYYADSVKGRFTISRDNAKNSLYLQMNSLRAEDTAVYYCARDLGRYYYYMDVWGKGTTVTVSS
VL: DIQMTQSPSSLSASVGDRVTITCRASQSISSWLAWYQQKPGKAPKSLIYAASSLQSGVPSKFSGSGSGTDFTLTISSLQPEDVATYYCQKYNSAPFTFGPGTKVDIK
notes: Human IgG1 form; also called Ab.26 human IgG1
Take B6: the EC50 in assay [1], in assay [2] and in assay [3] was 0.14 nM in each case.

B7: Ab.31 hG1 (antibody, V domains shown)
VH: EVQLLESGGGLVKPGGSLRLSCAASGFTFSSYSMNWVRQAPGKGLEWVSSISTSSNFIYYADSVKGRFTISRDNAKNSLYLQMNSLRAEDTAVYYCARDLGRYYYYMDVWGKGTTVTVSS
VL: DIVMTQSPSSLSASVGDRVTITCRASQSISSWLAWYQQKPGKAPKSLIYAASSLQSGVPSRFSGSGSGTDFTLTISSLQPEDVATYYCQKYNSAPFTFGPGTKVDIK
notes: Human IgG1 form; also called Ab.31 human IgG1
B7: the EC50 was determined as 0.12 nM in assay [1], 0.11 nM in assay [2] and 0.1 nM in assay [3].

B8: Ab.34 hG1 (antibody, V domains shown)
VH: EVQLLESGGGLVKPGGSLRLSCAASGFTFSSYSMNWVRQAPGKGLEWVSSISTSSNFIYYADSVKGRFTISRDNAKNSLYLQMNSLRAEDTAVYYCARDLGRYYYYMDVWGKGTTVTVSS
VL: DIVMTQSPSSLSASVGDRVTITCRASQSISSWLAWYQQKPGKAPKSLIYAASSLQSGVPSKFSGSGSGTDFTLTISSLQPEDVATYYCQKYNSYPFTFGPGTKVDIK
notes: Human IgG1 form; also called Ab.34 human IgG1
For the molecule B8, the 50% effective concentration (EC50) worked out at 0.13 nM in assay [1], 0.15 nM in assay [2] and 0.16 nM in assay [3].

B9: Ab.27 hG1 (antibody, V domains shown)
VH: EVQLLESGGGLVKPGGSLRLSCAASGFTFSSYSMNWVRQAPGKGLEWVSSISTSSNFIYYADSVKGRFTISRDNAKNSLYLQMNSLRAEDTAVYYCARDLGRYYYYMDVWGKGTTVTVSS
VL: DIVMTQSPSSLSASVGDRVTITCRASQSISSWLAWFQQKPGKAPKSLIYAASSLQSGVPSKFSGSGSGTDFTLTISSLQPEDVATYYCQKYNSAPFTFGPGTKVDIK
notes: Human IgG1 form; also called Ab.27 human IgG1
In the case of B9, the figures for the EC50 in assay [1], in assay [2] and in assay [3] were 0.17 nM, 0.22 nM and 0.26 nM, respectively.

B10: 18H3-KIF (partially non-fucosylated human IgG1 18H3 produced in Expi-CHO cells with kifunensine) (antibody, V domains shown)
VH: EVQLVQSGAEVKKPGESLKISCKGSGYRFTSYWIGWVRQMPGKGLEWMGIIYPGDSDTRYSPSFQGQVIISADKSITTAFLQWSSLKASDTAMYYCARPFDYGGSPGYFDYWGQGTLVTVSS
VL: DIQMTQSPSTLSASVGDRVTITCRASQSIRSWLAWYQQKPGKAPKLLIYKASSLESGVPSRFSGSGSGTEFTLTISSLQPDDFATYYCQQYNTFWTFGQGTKVEIK
With B10, in assay [4], the “IC50 of CLPD-NK leukemic cell depletion, ADCC assay with CLPD-NK patient PBMCs” value is 0.059 µg/mL and the “IC50 of NK cell depletion, ADCC assay with healthy donor PBMCs” value was 0.02 µg/mL.
